Data from patent CN1803842A (UNIV NANJING MEDICAL, dated 2006).

Key:
[1] = target: T1, BSA (UniProt P02769 25-607); assay: Western blot, 20 μg BSA per lane, purified scFv 1:5, detection with anti-c-myc antibody
T1 construct: Control protein in the Western blot

[2] = target: T2, Aβ1-42 (UniProt P05067 672-713); assay: Western blot, 20 μg Aβ1-42 per lane on PVDF, purified scFv 1:5, detection with anti-c-myc antibody and HRP goat anti-mouse IgG
T2 construct: domain: Aβ1-42; Sample loaded on the Tricine SDS-PAGE gel for the Western blot (20 μg per lane); also called Aβ 42; 合成的Aβ多肽

B1: E3单链抗体 (抗Aβ可溶性单链抗体) (scFv)
scFv: QVQLQESGPGLVKPSETLSLTCAVSGYSISSGYYWGWIRQPPGKGLEWIGSIYHSGSTYYNPSLKSRVTISVDTSKNQFSLKLSSVTAADTAVYYCARDLGSSVSWGQGTLVTVSSGGGGSGGGGSGGSALDIQMTQSPSSLSASVGDRVTISCRMSQGISNYLAWYQQKPGKVPKLLIYAASTLQSGVPSRFSGSGSGTDFTLTISSLQPEDVATYYCQKYNSALVTFGQGTKLEIKR
notes: Soluble scFv expressed in E. coli HB2151, purified on His-Trap, about 31 kD; also called E3scFv; E3 scFv; not shown: C-terminal tags of the pHEN2 vector, implied by His-Trap purification and detect
binding result [1]: no binding
binding result [2]: binds
